In patent publication CN117136070A (CELLDEX THERAPEUTICS INC, dated 2023):

T1: 重组人FcrRIIb (human, UniProt P31994 43-217, limits assumed)
T1 construct: Recombinant, histidine-tagged, captured on anti-penta-His biosensor; also called FcγRIIb; not shown: histidine tag
T1 sequence (looked up): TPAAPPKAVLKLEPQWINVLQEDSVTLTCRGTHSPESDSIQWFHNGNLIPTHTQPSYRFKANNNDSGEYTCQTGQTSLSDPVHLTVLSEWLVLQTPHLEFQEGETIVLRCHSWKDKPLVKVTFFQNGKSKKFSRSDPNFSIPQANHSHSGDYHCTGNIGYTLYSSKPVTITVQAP

T2: 重组人FcrRIIa (human, UniProt P12318 36-218, limits assumed)
T2 construct: Recombinant, histidine-tagged, captured on anti-penta-His biosensor; also called FcγRIIa; not shown: histidine tag
T2 sequence (looked up): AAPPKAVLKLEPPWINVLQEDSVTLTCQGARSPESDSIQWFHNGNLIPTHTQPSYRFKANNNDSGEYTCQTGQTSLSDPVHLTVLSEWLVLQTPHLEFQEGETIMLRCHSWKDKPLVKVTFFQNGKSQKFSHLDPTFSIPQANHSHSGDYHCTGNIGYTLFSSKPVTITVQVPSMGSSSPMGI


Tests used:
重组人FcrRIIb = molecular target: T1, 重组人FcrRIIb; experiment: BLI, His-tagged Fc receptor captured on anti-penta-His biosensor, antibody in solution
KIT (野生型KIT, M-07e细胞) = KIT (野生型KIT, M-07e细胞) (UniProt P10721 26-976, limits assumed); experiment: cell-based or functional assay
重组人FcrRI = molecular target: T3, 重组人FcrRI (human, UniProt P12314 16-288, limits assumed); experiment: BLI, His-tagged Fc receptor captured on anti-penta-His biosensor, antibody in solution
T3 construct: Recombinant, histidine-tagged, captured on anti-penta-His biosensor; also called FcγRI; FcgRI; not shown: histidine tag

重组人FcrRIIa = molecular target: T2, 重组人FcrRIIa; experiment: as above
重组人FcrRIIIa = molecular target: T4, 重组人FcrRIIIa (human, UniProt P08637 17-208); experiment: as above
T4 construct: Recombinant, histidine-tagged, captured on anti-penta-His biosensor; also called FcγRIIIa; not shown: histidine tag

重组人FcrRIIIb = molecular target: T5, 重组人FcrRIIIb (human, UniProt O75015 17-200); experiment: as above
T5 construct: Recombinant, histidine-tagged, captured on anti-penta-His biosensor; also called FcγRIIIb; not shown: histidine tag
T5 sequence (O75015 17-200 limits assumed): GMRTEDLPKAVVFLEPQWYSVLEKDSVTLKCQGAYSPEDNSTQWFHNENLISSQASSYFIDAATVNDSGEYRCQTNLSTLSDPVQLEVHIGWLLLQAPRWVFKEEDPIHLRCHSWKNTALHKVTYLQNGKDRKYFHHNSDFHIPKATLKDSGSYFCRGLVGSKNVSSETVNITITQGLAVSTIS

T4 sequence (P08637 17-208 limits assumed): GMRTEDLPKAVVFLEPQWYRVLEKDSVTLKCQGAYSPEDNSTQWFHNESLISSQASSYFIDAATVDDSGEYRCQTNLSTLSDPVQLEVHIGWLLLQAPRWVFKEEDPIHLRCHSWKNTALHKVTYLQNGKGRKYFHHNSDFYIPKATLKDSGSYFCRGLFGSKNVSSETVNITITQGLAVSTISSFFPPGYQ
KIT (野生型KIT, M-07e细胞), sequence (P10721 26-976 limits assumed): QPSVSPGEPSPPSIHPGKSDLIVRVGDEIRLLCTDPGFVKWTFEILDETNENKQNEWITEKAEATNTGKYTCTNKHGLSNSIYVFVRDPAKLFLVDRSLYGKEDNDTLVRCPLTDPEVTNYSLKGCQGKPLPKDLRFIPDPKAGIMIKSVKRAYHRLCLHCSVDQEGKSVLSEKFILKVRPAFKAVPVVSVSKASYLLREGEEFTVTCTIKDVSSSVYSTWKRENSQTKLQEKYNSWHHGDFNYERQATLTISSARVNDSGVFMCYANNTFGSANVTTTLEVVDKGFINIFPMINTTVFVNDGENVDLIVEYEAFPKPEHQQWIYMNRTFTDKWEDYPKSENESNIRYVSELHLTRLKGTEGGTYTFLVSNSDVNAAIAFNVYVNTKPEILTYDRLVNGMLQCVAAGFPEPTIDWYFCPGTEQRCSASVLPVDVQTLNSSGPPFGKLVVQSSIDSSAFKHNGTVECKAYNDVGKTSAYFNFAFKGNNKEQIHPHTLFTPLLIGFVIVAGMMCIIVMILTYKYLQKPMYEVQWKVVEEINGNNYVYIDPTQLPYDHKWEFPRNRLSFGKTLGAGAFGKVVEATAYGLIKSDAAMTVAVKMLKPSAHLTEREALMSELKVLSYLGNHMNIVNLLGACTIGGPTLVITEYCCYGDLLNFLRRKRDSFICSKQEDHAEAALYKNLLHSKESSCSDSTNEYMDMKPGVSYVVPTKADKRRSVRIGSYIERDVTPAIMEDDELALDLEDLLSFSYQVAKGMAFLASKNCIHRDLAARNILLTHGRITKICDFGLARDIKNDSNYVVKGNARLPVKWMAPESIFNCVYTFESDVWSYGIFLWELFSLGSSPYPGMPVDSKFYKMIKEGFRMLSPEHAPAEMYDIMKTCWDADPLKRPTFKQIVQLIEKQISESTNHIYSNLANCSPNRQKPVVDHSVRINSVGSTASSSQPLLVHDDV
T3 sequence (P12314 16-288 limits assumed): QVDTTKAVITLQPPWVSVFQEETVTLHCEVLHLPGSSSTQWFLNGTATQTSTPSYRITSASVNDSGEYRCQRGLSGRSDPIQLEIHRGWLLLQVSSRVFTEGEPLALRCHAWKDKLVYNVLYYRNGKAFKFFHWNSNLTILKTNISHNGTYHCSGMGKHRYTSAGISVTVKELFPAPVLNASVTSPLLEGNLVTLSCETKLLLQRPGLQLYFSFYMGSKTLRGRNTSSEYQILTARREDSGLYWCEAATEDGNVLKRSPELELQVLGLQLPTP

binding result (重组人FcrRIIb) | SCF-依赖性M-07e细胞增殖的抑制, 平均IC50 (KIT (野生型KIT, M-07e细胞)) [nM] | binding result (重组人FcrRI) | binding result (重组人FcrRIIa) | binding result (重组人FcrRIIIa) | binding result (重组人FcrRIIIb) | Binder
no binding | – | – | – | – | – | mAbc (antibody, also called 具有相同可变区序列但是未突变的(野生型)人IgG1序列的相应抗体; 具有野生型(未突变)IgG1 Fc域的相应抗体; copies: 2 + 2) VH: not shown VL: DIVMTQSPSSLSASVGDRVTITCKASQNVRTNVAWYQQKPGKAPKALIYSASYRYSGVPDRFTGSGSGTDFTLTISSLQPEDFADYFCQQYNSYPRTFGGGTKVEIKRTVAAPSVFIFPPSDEQLKSGTASVVCLLNNFYPREAKVQWKVDNALQSGNSQESVTEQDSKDSTYSLSSTLTLSKADYEKHKVYACEVTHQGLSSPVTKSFNRGEC
no binding (tested: 500nM) | 1.11 | no binding (tested: 500nM) | no binding (tested: 500nM) | no binding (tested: 500nM) | no binding (tested: 500nM) | mAb1 (antibody, human IgG1, kappa, also called 抗-KIT抗体mAb1; Fc突变的抗-KIT抗体; copies: 2 + 2) heavy: QVQLVQSGAEVKKPGASVKLSCKASGYTFTDYYINWVRQAPGKGLEWIARIYPGSGNTYYNEKFKGRATLTADKSTSTAYMQLSSLRSEDTAVYFCARGVYYFDYWGQGTTVTVSSASTKGPSVFPLAPSSKSTSGGTAALGCLVKDYFPEPVTVSWNSGALTSGVHTFPAVLQSSGLYSLSSVVTVPSSSLGTQTYICNVNHKPSNTKVDKKVEPKSCDKTHTCPPCPAPEAQGGPSVFLFPPKPKDTLYITREPEVTCVVVDVSHEDPEVKFNWYVDGVEVHNAKTKPREEQYNSTYRVVSVLTVLHQDWLNGKEYKCQVSNKALPAPIEKTISKAKGQPREPQVYTLPPSRDELTKNQVSLTCLVKGFYPSDIAVEWESNGQPENNYKTTPPVLDSDGSFFLYSKLTVDKSRWQQGNVFSCSVMHEALHNHYTQKSLSLSPG light: DIVMTQSPSSLSASVGDRVTITCKASQNVRTNVAWYQQKPGKAPKALIYSASYRYSGVPDRFTGSGSGTDFTLTISSLQPEDFADYFCQQYNSYPRTFGGGTKVEIKRTVAAPSVFIFPPSDEQLKSGTASVVCLLNNFYPREAKVQWKVDNALQSGNSQESVTEQDSKDSTYSLSSTLTLSKADYEKHKVYACEVTHQGLSSPVTKSFNRGEC
